Reference: patent US20080293634A1 (WASHINGTON STATE UNIVERSITY RESEARCH FOUNDATION, published 2008)
Non-standard residues stand in square brackets, D forms with d. No end group written: not given here. Nle = CCCC[C@H](N)C(=O)O

Assays:
[1] = target: T1, c-Met receptor on mouse liver plasma membranes (mouse, UniProt P16056 25-1379); test: competition with ^125I-HGF at various concentrations of COMPOUND 2 (mouse liver membranes)
T1 construct: whole, on cells; Membrane preparation from mouse liver
Procedure: (§1) ¹²⁵I-HGF binding assay. Mouse liver was homogenized in hypotonic buffer fortified with 0.1% bovine serum albumin as described by Hanesworth et al. (1993). 600 μg of membrane protein was incubated with 50 pM ¹²⁵I-HGF with various concentrations of HGF or Norleual in a total volume of 100 μl phosphate-buffered saline (PBS) fortified with 0.1% BSA. Binding occurred for one hour on ice. Membranes were pelleted by centrifugation and washed twice with incubation buffer. Radioactivity was counted with a gamma counter (Isomedic 10/880, ICN, Cost Mesa, Calif., USA). Specific binding was calculated and normalized to control counts. Competition fits by Prism software (GraphicPad, San Diego, Calif.) were performed according to the manufacturer's instructions.
Briefly, COMPOUND 2 was iodinated with […] and bound and cross-linked to HEK cell membranes with or without 1 nM COMPOUND 2 or 1 nM hepatocyte growth factor. Following solubilization and separation of free label by molecular sieving, total radioactive counts were determined. The ability of the ligand COMPOUND 2 to compete with hepatocyte growth factor binding to the c-Met receptor was also tested using mouse liver plasma membranes and intact HEK293 cells. […] Membranes were pelleted and unbound label was removed by washing, and total radioactive counts were determined. […]

[2] = target: T2, c-Met receptor on human cells (HEK293 cells and membranes, HUVEC) (human, UniProt P08581 25-1390); test: unlabeled Norleual against ^125I-Norleual on HEK293 membranes; two-site competition fit, low-affinity site
T2 construct: Endogenous receptor of human embryonic kidney HEK293 cells, HEK293 membranes and HUVEC; also called hepatocyte growth factor receptor; HGF-R
T2 sequence (P08581 other isoform, or with tags, fused parts or gaps limits assumed): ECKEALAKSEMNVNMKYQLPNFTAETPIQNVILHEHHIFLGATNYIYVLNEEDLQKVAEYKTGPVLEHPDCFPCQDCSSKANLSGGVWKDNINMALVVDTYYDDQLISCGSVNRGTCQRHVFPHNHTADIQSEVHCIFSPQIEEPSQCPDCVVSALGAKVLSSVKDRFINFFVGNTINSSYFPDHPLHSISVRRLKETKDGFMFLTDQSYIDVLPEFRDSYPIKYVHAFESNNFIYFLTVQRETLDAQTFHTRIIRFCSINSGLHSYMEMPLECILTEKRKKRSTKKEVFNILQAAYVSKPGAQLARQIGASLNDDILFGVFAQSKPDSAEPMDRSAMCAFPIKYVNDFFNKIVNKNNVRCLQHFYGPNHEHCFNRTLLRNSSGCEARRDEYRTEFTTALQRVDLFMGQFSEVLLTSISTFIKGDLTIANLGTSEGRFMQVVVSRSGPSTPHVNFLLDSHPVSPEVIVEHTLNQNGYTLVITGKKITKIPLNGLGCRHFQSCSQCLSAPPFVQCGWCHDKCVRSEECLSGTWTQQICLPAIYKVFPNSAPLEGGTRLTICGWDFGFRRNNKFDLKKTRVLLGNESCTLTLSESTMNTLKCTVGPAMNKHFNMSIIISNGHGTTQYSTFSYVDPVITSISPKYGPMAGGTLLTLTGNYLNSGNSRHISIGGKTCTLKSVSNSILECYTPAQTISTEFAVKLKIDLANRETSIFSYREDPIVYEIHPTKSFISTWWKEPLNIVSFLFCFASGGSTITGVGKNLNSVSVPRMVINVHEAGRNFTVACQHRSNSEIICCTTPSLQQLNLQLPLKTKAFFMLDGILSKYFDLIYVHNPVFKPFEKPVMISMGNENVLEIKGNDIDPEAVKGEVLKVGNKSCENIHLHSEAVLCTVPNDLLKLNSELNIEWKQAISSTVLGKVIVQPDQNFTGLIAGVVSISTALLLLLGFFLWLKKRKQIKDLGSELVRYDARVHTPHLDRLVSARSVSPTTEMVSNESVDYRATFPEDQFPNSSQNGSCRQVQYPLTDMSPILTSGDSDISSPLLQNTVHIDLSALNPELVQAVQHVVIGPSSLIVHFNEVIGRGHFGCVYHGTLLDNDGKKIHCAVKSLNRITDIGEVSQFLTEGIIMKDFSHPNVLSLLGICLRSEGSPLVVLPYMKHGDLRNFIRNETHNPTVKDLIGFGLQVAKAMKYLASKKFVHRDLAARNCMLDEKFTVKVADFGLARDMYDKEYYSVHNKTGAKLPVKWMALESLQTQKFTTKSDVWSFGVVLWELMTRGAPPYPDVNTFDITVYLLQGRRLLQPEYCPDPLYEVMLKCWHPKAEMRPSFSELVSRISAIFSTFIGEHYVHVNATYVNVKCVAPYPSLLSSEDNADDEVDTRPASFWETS
Procedure: (§2) FIG. 3C: ¹²⁵I-Norleual was bound to HEK membranes in the presence or absence of 1.5 nM HGF (n=8) or 1 μM Norleual (n=6). Total binding is reported as percent control (n=10), (*p<0.001). Error bars indicate±SD. […] Error bars indicate SD and data points were performed in duplicate.
(§3) ¹²⁵I-Norleual binding assay. HEK293 cells were grown to confluency in DMEM fortified with 10% FBS. Media was aspirated and cells were washed twice with ice-cold PBS. Cells were lysed with hypotonic buffer and homogenized as described by Zhang et al. (1999, J. Pharmacol. Exp. Ther. 289: 1075-1083; 2003 J. Cell Biochem. 88: 408-417). 450 μg of membrane protein was incubated with 1.5 nM ¹²⁵I-Norleual with or without Norleual or HGF in a total volume of 250 μl PBS, 0.1% BSA. Tubes were spun and binding was carried out for 60 minutes at RT. Bound and free ligands were separated by vacuum filtration using (Brandel Cell Harvester, Schleicher & Schull, Keene, N.H., USA) 32 glass filters. Radioactivity retained by the filters was measured using a gamma counter. […] Data analysis was preformed using Prism software (GraphicPad) per the supplier's recommendations.

[3] = target: T2, c-Met receptor on human cells (HEK293 …); test: unlabeled Norleual against ^125I-Norleual on HEK293 membranes; two-site competition fit, high-affinity site
Procedure: as §2, §3

[4] = target: T1, c-Met receptor on mouse liver plasma …; test: competition with 50 pM ^125I-HGF for binding to mouse liver plasma membranes; mean ±SEM, n=3
Procedure: Mouse liver plasma membranes were incubated with […] ¹²⁵I-HGF and the indicated concentrations of HGF or Norleual. Results are presented as percent of specific ¹²⁵I-HGF binding and error bars indicate±standard error of mean (SEM). Competition experiments included quadruplicate data points and each experiment was repeated in triplicate.
as §1
Materials and methods were as described in Example 1. In separate tests of unlabeled competitors, both Norleual and HGF competed with ¹²⁵I-HGF for high affinity binding to mouse liver plasma membranes (FIGS. 2A, 2B). […]

T1 sequence (P16056 25-1379): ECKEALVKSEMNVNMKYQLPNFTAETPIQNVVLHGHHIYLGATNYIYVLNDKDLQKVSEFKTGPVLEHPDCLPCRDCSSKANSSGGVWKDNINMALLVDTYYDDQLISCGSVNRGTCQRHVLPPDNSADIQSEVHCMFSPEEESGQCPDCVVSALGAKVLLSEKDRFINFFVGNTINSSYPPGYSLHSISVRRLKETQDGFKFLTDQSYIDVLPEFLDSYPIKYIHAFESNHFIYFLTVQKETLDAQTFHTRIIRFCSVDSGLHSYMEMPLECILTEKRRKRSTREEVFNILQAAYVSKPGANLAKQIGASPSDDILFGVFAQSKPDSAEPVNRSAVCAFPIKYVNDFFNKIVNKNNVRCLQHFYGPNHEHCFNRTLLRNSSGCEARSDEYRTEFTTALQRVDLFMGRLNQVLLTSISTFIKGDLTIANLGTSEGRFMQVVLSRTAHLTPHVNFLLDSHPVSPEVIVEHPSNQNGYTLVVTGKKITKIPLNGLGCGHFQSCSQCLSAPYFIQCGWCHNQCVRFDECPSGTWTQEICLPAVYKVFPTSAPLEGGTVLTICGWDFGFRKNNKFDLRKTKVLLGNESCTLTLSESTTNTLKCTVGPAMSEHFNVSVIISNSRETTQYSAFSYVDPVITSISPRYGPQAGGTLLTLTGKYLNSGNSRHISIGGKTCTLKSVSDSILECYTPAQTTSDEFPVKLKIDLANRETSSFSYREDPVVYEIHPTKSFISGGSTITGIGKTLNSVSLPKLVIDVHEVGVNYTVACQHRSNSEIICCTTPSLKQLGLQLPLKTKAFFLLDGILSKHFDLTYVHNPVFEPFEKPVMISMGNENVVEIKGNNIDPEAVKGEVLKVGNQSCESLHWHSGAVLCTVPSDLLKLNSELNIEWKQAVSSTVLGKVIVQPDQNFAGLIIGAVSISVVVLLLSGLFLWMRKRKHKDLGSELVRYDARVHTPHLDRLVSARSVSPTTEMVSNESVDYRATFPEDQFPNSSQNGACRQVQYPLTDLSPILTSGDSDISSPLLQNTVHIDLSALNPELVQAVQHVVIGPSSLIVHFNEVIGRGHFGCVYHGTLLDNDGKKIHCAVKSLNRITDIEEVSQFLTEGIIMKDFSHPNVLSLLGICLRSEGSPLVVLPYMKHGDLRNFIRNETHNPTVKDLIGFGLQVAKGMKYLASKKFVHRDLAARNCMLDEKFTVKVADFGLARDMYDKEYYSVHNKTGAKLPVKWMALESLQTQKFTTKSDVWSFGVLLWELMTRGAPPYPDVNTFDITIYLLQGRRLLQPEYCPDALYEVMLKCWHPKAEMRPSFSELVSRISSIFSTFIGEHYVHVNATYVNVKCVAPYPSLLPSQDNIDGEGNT

B1: Norleual (Nle-Tyr-Leu-ψ-(CH2-NH2)-His-Pro-Phe) (peptide)
peptide: [Nle]YLHPF
modifications: not fully specified; printed as Nle-Tyr-Leu-ψ-(CH2-NH2)-His-Pro-Phe; also: reduced peptide bond ψ(CH2-NH) between Leu3 and His4
notes: Synthesized by Syngene and purified by reverse phase HPLC; Peptidomimetic hexapeptide; also called Compound 2; COMPOUND 2
Kd [1]: ~3 pM
IC50 [2]: 7.4 nM
IC50 [3]: 0.048 nM
IC50 [4]: 3.1 pM
